Assay [1] addresses T1, Aβ42 oligomers (UniProt P05067 672-713).
T1 construct: domain: Aβ42; immobilized preparation containing monomers, low and high molecular weight oligomers; also called Amyloid beta oligomers; Aβ oligomers
Nature of the assay: Biacore (SPR), Aβ oligomer preparation AβO1 (HQ AβO1); lower end of the range. The method, then: Using a Biacore™ 3000, Aβ42 oligomers were immobilized (containing monomers, low and high molecular weight oligomers) and BSA (reference surface) on 4 separate flow cells of a biosensorchip. Murine 5E3 or humanized 5E3 IgG1, IgG2, and IgG4 were then diluted, sequentially injected over the different immobilized peptides and antibody binding monitored in real time. Binding data was collected by sequentially injecting buffer blanks, 1/10 dilutions of m5E3 or 1 uM dilutions of hu5E3 control over separate flow cells immobilized with BSA or Aβ42 oligomer on another biosensor chip at a flow rate of 10 μl/minute. Association was allowed for 200 seconds, followed by dissociation for 500 seconds and binding responses collected 10 seconds before the end of the […]. All binding responses were double-referenced by subtracting buffer blanks and BSA reference surface binding.
Results: As shown in FIG. 9A and FIG. 9B, the humanized 5E3 isotypes bound to the Aβ42 oligomer preparation. Affinity constants were determined for hu5E3 IgG1 Aβ42 oligomer preparations.

The target in assay [2] is T2, cSNK:BSA conjugate (bovine, head-to-tail cyclized; conjugated to BSA carrier).
T2 construct: also called BSA-cSNK
T2 sequence (P02769 25-607 limits assumed): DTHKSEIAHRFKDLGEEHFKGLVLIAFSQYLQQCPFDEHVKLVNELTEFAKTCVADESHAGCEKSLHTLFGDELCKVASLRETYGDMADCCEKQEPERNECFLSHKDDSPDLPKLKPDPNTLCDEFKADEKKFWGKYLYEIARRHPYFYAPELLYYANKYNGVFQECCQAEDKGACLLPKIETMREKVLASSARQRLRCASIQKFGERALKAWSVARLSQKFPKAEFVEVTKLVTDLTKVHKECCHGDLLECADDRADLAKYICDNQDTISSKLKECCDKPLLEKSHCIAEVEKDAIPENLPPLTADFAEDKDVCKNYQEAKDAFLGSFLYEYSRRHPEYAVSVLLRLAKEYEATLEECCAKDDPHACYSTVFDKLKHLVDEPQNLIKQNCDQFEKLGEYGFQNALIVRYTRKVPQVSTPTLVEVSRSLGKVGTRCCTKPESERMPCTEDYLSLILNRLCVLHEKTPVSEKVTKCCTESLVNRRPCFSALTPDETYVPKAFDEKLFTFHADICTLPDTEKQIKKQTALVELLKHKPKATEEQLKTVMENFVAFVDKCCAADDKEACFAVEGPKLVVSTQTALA
In words: BLI (Octet), KD1; unlabelled reference row, taken as hu5E3; unlabelled reference row at the top of the table.

Assay [3] has as its target T2, cSNK:BSA conjugate. Nature of the assay: BLI 2:1 fit, site 1 (KD1); 100 nM row. The method, then:
(§1) Biolayer interferometry (Octet […], ForteBio) was used to qualitatively/quantitatively assess the interactions between humanized versions of 5E3 and cSNK:BSA conjugate. […] MAbs were loaded onto sensors and then washed in PBST. Each sensor was associated with one of several cSNK:BSA standards (100 nM to 0 nM) and then washed in PBST. Data was processed statistically using ForteBio Data Analysis software to determine the strength of antigen-antibody binding (KD). For each mAb analyzed, a 2:1 model provided the “best fit”.

The target of assay [4] is T2, cSNK:BSA conjugate. In words: BLI 2:1 fit, site 1 (KD1); 1.56 nM row. The method, then:
as §1

Assay [5] addresses T2, cSNK:BSA conjugate. In words: BLI 2:1 fit, site 1 (KD1); 6.25 nM row. The method, then:
as §1

Bounds are passed on as bounds.

T1 sequence (P05067 672-713 limits assumed): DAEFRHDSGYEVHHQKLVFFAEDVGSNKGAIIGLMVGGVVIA

B1: hu5E3-IgG1 (antibody, V domains shown)
VH: QVQLQQSGPEVKKPGASVKISCKASGYIFTSYYIQWVIHAPGQGLEWIGWIYPGNVNTKYNEKFKGKATLTADKSSSTAYMELSSLTSEDTAVYFCARMDYEAHYWGQGTTVTVSS
VL: DIQMTQSPSSLSASVGDRVTITCRASQEISGYLTWLQQKPEGAIKRLIYAASTLDSGVPKRFSGSRSGSDYSLTISSLQPEDFATYNCLQYANYPRTFGGGTKLEIK
notes: human IgG1/kappa; also called humanized 5E3 IgG1; IHA variant
The term Kd denotes the free concentration of one partner at which half of the binding sites on the other are occupied at equilibrium, for simple one-to-one binding. A lower Kd goes with tighter binding. Consider B1, for which the Kd in assay [1] was not below 182000 nM; in assay [2] it was 6.27 nM.

B2: rehu5E3-IgG4 (antibody, V domains shown)
VH: QVQLQQSGPEVVKPGASVKISCKASGYIFTSYYIQWVIHAPGQGLEWIGWIYPGNVNTKYNEKFKGKATLTADKSSSTAYMELSSLRSEDSAVYFCARMDYEAHYWGQGTLVTVSS
VL: DIQMTQSPSSLSASLGDRVTLTCRASQEISGYLTWLQQKPEKAIKRLIYAASTLDSGVPKRFSGSRSGSDYTLTISSLQPEDFADYNCLQYANYPRTFGGGTKLEIK
notes: human IgG4/kappa; also called IgG4 rehu version
Take B2: the Kd in assay [3], in assay [4] and in assay [5] was 0.557 nM each time.

Values taken from patent US20170008955A1 (CNJ, published 2017).
